Source: patent US20220396632A1 (VERSEAU THERAPEUTICS, published 2022)
Numbering of substitutions follows the chain as printed.

Experiments:
[1] = molecular target: T1, Human complement C4 protein (Millipore Sigma, Cat. 204886) (human, UniProt P0C0L4 20-675; P0C0L4 680-1446; P0C0L4 1454-1744, limits assumed, natural sulfotyrosines); test: ELISA, 50 nM mAb on plate-bound protein
T1 construct: mature
Procedure: Recombinant PSGL-1-hFc1 chimera protein consisting of PSGL-1's extracellular domain (ECD) served as a positive control. […] Primary antibody was added (25 ul per well) in duplicate at 50 nM in assay buffer (blocking buffer containing 0.05% Tween®20) into test and control (just blocked) wells and the plate incubated for 45 min at 37° C.

[2] = molecular target: T2, Recombinant human PSGL-1(ECD)-hFc1 (R&D Systems, Cat. 3345-PS) (human, UniProt Q14242 42-305); test: Octet tandem; competitor 15A7
T2 construct: Bought; Gln42-Val295 counted on AAC50061; also called PSGL-1-Fc; PSGL-1-hFc1 chimera; not shown: human IgG1 Fc, Pro100-Lys330
T2 sequence: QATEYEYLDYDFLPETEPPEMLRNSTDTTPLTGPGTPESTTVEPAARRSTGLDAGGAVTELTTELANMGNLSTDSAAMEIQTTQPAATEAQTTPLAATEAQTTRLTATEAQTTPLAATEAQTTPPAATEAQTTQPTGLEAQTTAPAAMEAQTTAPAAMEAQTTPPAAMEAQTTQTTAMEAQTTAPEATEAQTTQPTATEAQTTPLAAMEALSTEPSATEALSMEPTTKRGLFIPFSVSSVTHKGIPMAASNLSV
Procedure: (§1) Antibody binning was performed by ForteBio Octet® using a tandem assay format, with anti-human IgG biosensor-immobilized PSGL-1(ECD)-hFc1 protein, binding of competitor mAb followed by analyte antibody. As competition controls, the same antibody was competed against itself, and mAb competition was performed bidirectionally.
(§2) Antibody binning by tandem octet was performed by immobilizing 10 ug/mL PSGL-1(ECD)-hFc1 (R&D Systems, Cat. #3345-PS) in PBS, pH 7.4, onto anti-human IgG capture biosensors (ForteBio, Cat. #18-5060), binding of 100 nM competitor antibody for 300 sec., followed by binding of 100 nM of analyte mAb for 300 s in kinetic buffer (0.1% BSA in PBS containing 0.02% tween 20 and 0.05% sodium azide, pH 7.4). Synagis (Johnson et al. (1997) J. Infect. Dis. 176:1215-1224) served as a negative control mAb for competition. An Fc quench step (0.25 mg/mL human IgG Fcl; BioXcell, Cat. #BE0096, in kinetic buffer) was included when human mAbs were tested to prevent high background from the antibodies binding to the anti-human IgG biosensor. Biosensor regeneration buffer consisted of 10 mM glycine, pH 2.0.

[3] = molecular target: T2, Recombinant human PSGL-1(ECD)-hFc1 (R&D …); test: Octet tandem; competitor 18F17
Procedure: as §1, §2

[4] = molecular target: T2, Recombinant human PSGL-1(ECD)-hFc1 (R&D …); test: Octet tandem; competitor 19N05
Procedure: as §1, §2

[5] = molecular target: T2, Recombinant human PSGL-1(ECD)-hFc1 (R&D …); test: Octet tandem; competitor 20G13
Procedure: as §1, §2

[6] = molecular target: T2, Recombinant human PSGL-1(ECD)-hFc1 (R&D …); test: Octet tandem; competitor 19L04
Procedure: as §1, §2

[7] = molecular target: PSGL-1(ECD)-hFc1 M119A protein (Sino Biological) (human); test: ELISA, plate-bound peptide or protein
Procedure: (§3) A typical ELISA experiment involved binding of a single concentration or serially diluted mAb in assay buffer (3% BSA in PBS containing 0.05% Tween®20, pH 7.4) onto BSA blocked high binding microtiter plate half-wells (Corning Cat. #3690), which contained PSGL-1 protein or streptavidin-immobilized biotin peptide. After incubation for 45 min. at 37° C., the plate was washed 3 times with wash buffer (PBS containing 0.05% Tween®20, pH 7.4), and an appropriate HRP-conjugated secondary antibody added (25 ul/well) (HRP goat anti-mouse or anti-human IgG). After 45 min. incubation at 37° C., the plate was washed and antibody bound to plate-immobilized target was determined at A450 nm using HRP substrate (3,3′5,5′-tetramethylbenzidine (TMB)). For each antibody, duplicate values were averaged and assay background subtracted.

[8] = molecular target: PSGL-1(ECD)-hFc1 S116A protein (Sino Biological) (human); test: ELISA, plate-bound peptide or protein
Procedure: as §3

[9] = molecular target: PSGL-1(ECD)-hFc1 I121A protein (Sino Biological) (human); test: ELISA, plate-bound peptide or protein
Procedure: as §3

[10] = molecular target: T2, Recombinant human PSGL-1(ECD)-hFc1 (R&D …); test: Octet tandem; competitor 16E17
Procedure: as §1, §2

[11] = molecular target: T3, Biotin PSGL-1(42-62) D52A peptide (C-terminal Lys-biotin); test: ELISA; against wild-type PSGL-1 42-62
T3 peptide: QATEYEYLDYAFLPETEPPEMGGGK

[12] = molecular target: T4, Biotin PSGL-1(42-62) P55A peptide (C-terminal Lys-biotin); test: ELISA; against wild-type PSGL-1 42-62
T4 peptide: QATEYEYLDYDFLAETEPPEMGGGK

T1 sequence (P0C0L4 20-675 limits assumed, form in doubt, chain 1 of 3): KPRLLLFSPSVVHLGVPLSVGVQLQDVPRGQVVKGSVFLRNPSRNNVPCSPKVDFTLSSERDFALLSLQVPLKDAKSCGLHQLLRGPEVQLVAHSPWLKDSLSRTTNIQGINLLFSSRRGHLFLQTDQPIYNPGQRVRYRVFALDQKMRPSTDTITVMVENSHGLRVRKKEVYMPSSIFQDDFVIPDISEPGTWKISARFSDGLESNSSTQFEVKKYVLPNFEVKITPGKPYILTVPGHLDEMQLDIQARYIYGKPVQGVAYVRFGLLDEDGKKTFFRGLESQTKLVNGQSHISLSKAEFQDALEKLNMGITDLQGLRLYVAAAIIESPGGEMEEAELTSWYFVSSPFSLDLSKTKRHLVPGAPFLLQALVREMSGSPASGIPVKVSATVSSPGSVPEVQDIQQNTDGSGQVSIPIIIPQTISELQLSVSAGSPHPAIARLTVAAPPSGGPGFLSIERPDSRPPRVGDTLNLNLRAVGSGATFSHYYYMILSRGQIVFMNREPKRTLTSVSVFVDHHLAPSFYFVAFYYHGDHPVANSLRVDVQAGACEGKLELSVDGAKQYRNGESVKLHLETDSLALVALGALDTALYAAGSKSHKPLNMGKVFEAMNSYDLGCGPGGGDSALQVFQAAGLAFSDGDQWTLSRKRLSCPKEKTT
T1 sequence (P0C0L4 680-1446 limits assumed, form in doubt, chain 2 of 3): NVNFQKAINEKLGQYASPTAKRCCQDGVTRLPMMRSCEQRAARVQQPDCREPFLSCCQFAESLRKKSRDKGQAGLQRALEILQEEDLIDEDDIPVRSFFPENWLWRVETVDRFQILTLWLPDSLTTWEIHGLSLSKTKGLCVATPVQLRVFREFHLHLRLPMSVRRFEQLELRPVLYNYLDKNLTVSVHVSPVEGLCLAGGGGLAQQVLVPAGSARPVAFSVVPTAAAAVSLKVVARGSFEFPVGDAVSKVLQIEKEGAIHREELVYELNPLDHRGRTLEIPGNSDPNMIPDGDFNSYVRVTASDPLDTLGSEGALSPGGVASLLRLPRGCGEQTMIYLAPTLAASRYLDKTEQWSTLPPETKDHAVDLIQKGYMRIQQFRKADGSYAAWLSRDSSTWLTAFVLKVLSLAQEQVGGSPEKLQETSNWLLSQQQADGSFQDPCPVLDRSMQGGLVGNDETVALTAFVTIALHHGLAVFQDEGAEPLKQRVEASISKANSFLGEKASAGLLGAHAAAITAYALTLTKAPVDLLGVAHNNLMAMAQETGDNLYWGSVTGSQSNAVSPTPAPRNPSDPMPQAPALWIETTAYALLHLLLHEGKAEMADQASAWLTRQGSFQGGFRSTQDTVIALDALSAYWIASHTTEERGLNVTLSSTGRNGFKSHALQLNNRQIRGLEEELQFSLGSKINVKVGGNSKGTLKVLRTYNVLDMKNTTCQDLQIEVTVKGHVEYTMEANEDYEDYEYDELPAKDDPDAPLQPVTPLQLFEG
T1 sequence (P0C0L4 1454-1744 limits assumed, form in doubt, chain 3 of 3): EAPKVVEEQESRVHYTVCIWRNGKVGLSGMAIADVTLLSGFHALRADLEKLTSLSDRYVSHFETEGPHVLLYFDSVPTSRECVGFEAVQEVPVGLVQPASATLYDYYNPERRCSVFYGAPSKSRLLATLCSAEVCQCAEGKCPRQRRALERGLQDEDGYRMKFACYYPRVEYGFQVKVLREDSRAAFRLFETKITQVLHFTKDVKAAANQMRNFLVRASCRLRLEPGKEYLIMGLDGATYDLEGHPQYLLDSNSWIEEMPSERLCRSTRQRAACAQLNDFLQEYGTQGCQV

B1: 5E12 (antibody, V domains shown)
VH: EIQLQQSGAELVRPGASVKLSCTASGFNIKDDYIHWVKQRPEQGLEWIGRIDPANGNTKSAPKFQDKATITADTSSNTAYLHLSSLTSEDTAVYYCSIRFAYWGQGTLVTVSA
VL: DVVMTQTPLSLSVSLGDQASISCRSSQSLVYRNGDTYLHWFLQKPGQSPKLLIYKVSNRFSGVPDRFSGSGSGTDFTLKISRVEAEDLGIYFCSQNTHVPYTFGGGTKLEIK
notes: Mouse hybridoma mAb; only variable domains given
% of binding to PSGL-1(ECD)-hFc1 [1]: ≤ 10%

B2: 18K07 (antibody, V domains shown)
VH: QIQLVQSGPELKKPGETVKISCEASGYTFTTYGMNWVKQAPGKGLKWMGWINTYSGVPTYADDFQGRFAFSVETSATTAYLQINNLKNEDAATYFCARSDDTYYGFAYWGQGTLVTVSA
VL: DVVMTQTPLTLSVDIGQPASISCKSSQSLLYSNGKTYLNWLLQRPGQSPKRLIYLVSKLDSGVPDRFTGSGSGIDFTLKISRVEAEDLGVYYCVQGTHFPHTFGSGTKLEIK
notes: From mouse immunisation; only variable domains given
% binding of analyte mAb [2]: 23.9%
% binding of analyte mAb [3]: 91.4%
% binding of analyte mAb [4]: 0%
% binding of analyte mAb [5]: 0%
% binding of analyte mAb [6]: 0%
EC50 [7]: 0.46 nM
EC50 [8]: 0.58 nM
EC50 [9]: 0.51 nM
% binding of analyte mAb [10]: 11.7%

B3: 16L15 (antibody, V domains shown)
VH: DVKLVESGGGLVKLGGSLKLSCAASGFTFSSYYMSWVRQTPEKRLEWVATISNGGGSTYYPDSVKDRFTISRDNAKNTLYLQMSSLNSEDTAVYYCAKPLYYSNPWFAYWGQGTLVTVSA
VL: DVLLTQTPLSLPVSLGDQASISCRSSQSIVHSNGNTYLEWYLQKPGQSPKLLIYKVSNRFSGVPDRFSGSGSGTDFTLKISRVEAEDLGVYYCFQGSHVPRTFGGGTKLEIK
notes: as for B2
% of binding to PSGL-1(ECD)-hFc1 [1]: ≤ 10%
EC50Ala/EC50 wt [11]: 21 fold

B4: 9F9 (antibody, V domains shown)
VH: EVQLVETGGGLVQPKGSLKLSCAASGFTFNTNAMNWVRQAPGKGLEWVARIRSKSNNYATYYADSVKDRFTISRDDTQSMIYLQMNNLKTEDTGMYYCVRGGSYWYFDVWGAGTTVTVSS
VL: B3 VL with L4M, H31N, R101W
notes: Control anti-PSGL-1 mAb, recombinant; only variable domains given; also called 9F6
EC50Ala/EC50 wt [12]: > 100 fold

B5: 43B6 (antibody, V domains shown)
VH: EVQLQQSGPDLVKPGALVKISCKASGYSFTAYYIHWVKQSHGKSLEWIGRVNPNTGGTSYNPKFKGKAILNVDKSSSTAYMELRSLTSEDSAVYYCARSGSPYYRYDDWGQGTTLTVSS
VL: ENVLTQSPAIMSASPGEKVTMTCRASSTVNSTYLHWFQQKSGASPKLWIYGSSNLASGVPARFSGSGSGTSYSLTISSVEAEDAATYYCQQYSGYPLTFGAGTTLELK
notes: Control anti-PSGL-1 mAb, recombinant; only variable domains given; also called 43B3
EC50Ala/EC50 wt [12]: 9.5 fold

B6: 10F01 (antibody, IgG4, V domains shown)
VH: EVQLVQSGGGLVQPGGSLRLSCAASGFTFSSYAMSWVRQAPGKGLEWVSALRGGDGGTYHADSVKGRFTISGDSSKNTLYLQMNSLRAEDTAVYYCARRMVGAAYAFDIWGQGTMVTVSS
VL: LPVLTQPHSVSESPGKTVTISCTRSSGSIADNFVQWYRQRPGSAPTTVIYEGDQRPSGVPGRFSGSIDSSSNSASLTISGLQTDDEADYYCQSFDSYNRRTHVVFGGGTKLTVL
% of binding to PSGL-1(ECD)-hFc1 [1]: ≤ 10%

B7: 19I01 (antibody, V domains shown)
VH: EVQLVESGGGLVKPGGSRKLSCAASGFTFSDYGMHWVRQAPEKGLEWVAYISSGSSTIYYADTVKGRFTISRDNAKNTLFLQMTSLRSEDTAMYYCARGVDGYWGQGTTLTVSS
VL: DVVMTQTPLSLPVSLGDQASISCRSSQSLVHSNGNTYLHWYLQKPGQSPKFLIYKVSNRFSGVPDRFSGSGSGTDFTLKISRVEAEDLGVYFCSQTTHVPLTFGAGTKLELK
notes: From mouse immunisation; only variable domains given; also called 19101
% of binding to PSGL-1(ECD)-hFc1 [1]: ≤ 10%
EC50Ala/EC50 wt [11]: 15.9 fold
EC50Ala/EC50 wt [12]: 68.4 fold

B8: 16E17 (antibody, V domains shown)
VH: QIQLVQSGPELKKPGETVKISCKASGYAFTTYGMSWVKQAPGKGLKWMGWINTYSGVPKYADDFKGRFAFSLETSASTAYLHINNLKNEDTATYFCGRHYYGSSYFDYWGQGTTLTVSS
VL: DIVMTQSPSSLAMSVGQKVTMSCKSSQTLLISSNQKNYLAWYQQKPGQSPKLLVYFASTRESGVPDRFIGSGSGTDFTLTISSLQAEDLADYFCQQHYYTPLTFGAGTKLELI
notes: as for B2
% binding of analyte mAb [2]: 21%
% binding of analyte mAb [3]: 93.8%
% binding of analyte mAb [4]: 5.1%
% binding of analyte mAb [5]: 32.4%
% binding of analyte mAb [6]: 0%
EC50 [7]: 0.87 nM
EC50 [8]: 0.8 nM
EC50 [9]: 1.54 nM
% binding of analyte mAb [10]: 16.3%

B9: 19N05 (antibody, V domains shown)
VH: B8 VH with A28T, K59T, Y60F, H82Q, Y94F, G97A, H99N, S103N, S104H
VL: DVQITQSPSYLAASPGETISINCRASNNINKYLAWYQEKPGKTNKLLIYSGSTLQSGIPSRFSGSGSGTDFTLTISSLEPEDFAMYHCQQHNYYPLTFGAGTKLELK
notes: as for B2
% binding of analyte mAb [2]: 36%
% binding of analyte mAb [3]: 65.3%
% binding of analyte mAb [4]: 69.4%
% binding of analyte mAb [5]: 0%
% binding of analyte mAb [6]: 39.4%
EC50 [7]: 0.51 nM
EC50 [8]: 0.55 nM
EC50 [9]: 0.53 nM
% binding of analyte mAb [10]: 29.1%

B10: 19L04 (antibody, IgG4, V domains shown)
VH: B8 VH with A28T, K59T, H82Q, N88I, G97A, S104H
VL: DIMMTQSPSSLAMSVGQKVTLRCKSSQSLLNSSNQKNYLAWYQQKPGQSPKLLVYFASTRESGVPVRFIGSGSGTDFTLTISSMQAEDLADYFCQQHYFSPLTFGAGTKLELK
notes: as for B2
% binding of analyte mAb [2]: 28.3%
% binding of analyte mAb [3]: 81.4%
% binding of analyte mAb [4]: 44.3%
% binding of analyte mAb [5]: 0%
% binding of analyte mAb [6]: 35.9%
EC50 [7]: 0.86 nM
EC50 [8]: 0.98 nM
EC50 [9]: 0.97 nM
% binding of analyte mAb [10]: 61.9%

B11: 18F02 (antibody, V domains shown)
VH: QVQLQQPGAELVKPGASVKLSCKASGYTFTSYWMHWVKQRPGQGLEWIGMIHPNSGRTNYNEKFKSKATLTVDKSSSTAYMQLSSLTSEDSAVYYCARSDYWGQGTTLTVSS
VL: DIVMTQAAFSNPVTLGTSASISCRSSKSLLHSDGITYLYWFLQRPGQSPQLLIYRMSNLASGVPDRFSGSGSGTDFTLRISRVEAEDVGVYYCAQMLEFPRTFGGGTKLEIK
notes: as for B2
% of binding to PSGL-1(ECD)-hFc1 [1]: ≤ 10%
EC50Ala/EC50 wt [11]: > 100 fold
